Numbered stars: 1 amine (or outer) side, 2 acyl side, 3 side chain; on linkers, the order of the positions; unused ones are H or OH. Bridge positions count the residues as written; N and C are the ends. Square brackets hold non-standard residues; d marks the D form. Triazole bridges read from a SMILES are 1,4-linked. Peptide text beside a SMILES is read from it. * marks the point of attachment. DOTA = O=C(O)CN1CCN(CC(=O)O)CCN(CC(=O)*)CCN(CC(=O)O)CC1; Pteroyl = Nc1nc2ncc(CNc3ccc(C(=O)*)cc3)nc2c(=O)[nH]1; Butanoyl(4-(4-I-phenyl)) = O=C(CCCc1ccc(I)cc1)*; Butanoyl(4-(4-MePh)) = Cc1ccc(CCCC(=O)*)cc1; Lys(N3) = [N-]=[N+]=NCCCC[C@H](N)C(=O)O; γGlu = O=C(O)[C@H](CCC(=O)[*:2])N[*:1]; Pra = C#CC[C@H](N)C(=O)O

Series [1] concerns OVCAR3 xenografts. The series is described as follows: 177Lu FOLR1 radioligand therapy in OVCAR3 xenograft model. As to conditions: for body weight change: single dose. It counts as in vivo, mouse. The protocol:
Water and food were provided ad libitum. […] Tumor growth was monitored by caliper measurements.
OVCAR3 tumor bearing mice were used to study FOLR1-directed radioligand therapy (RLT) for treatment of ovarian cancer. Animals were administered a single dose of heterobiligand (vehicle control) or 111, 37, 18.5, 9.25, or 3.7 MBq [^177Lu]DOTA-labeled heterobiligand. Mice received the dose intravenously (i.v.) via the tail vein. To monitor the effect of the RLT, tumor size measurements were taken twice weekly and body weights were measured.
The engraftment was allowed to expand until palpable tumor sizes ranging in size from 218-384 mm^3 were detected. […] These observed effects were consistant with radiation overdosing. […] The best response was observed using 9.25 MBq Lu-177 Heterobiligand (compound #2809).
Single dose treatments at 18.5 MBq/nmol specific activity. OVCAR3 mouse model was used. 10^7 cell tumors were implanted in the mice one month before administration of ^177Lu-#6305. Five mice each were administered Cold #6305, 9.25 MBq Lu177-#6305, and 14.8 MBq Lu177-#6305, and two mice were administered 29.6 MBq Lu177-#6305. Tumor growth and body weight were then monitored.
Female NSG mice were implanted subcutaneously with OVCAR3 cells. Once tumors reached volumes of 200 mm^3, the animals were treated with 177-Lu 7327. Three treatment arms of 9.25 MBq, 14.8 MBq, and 29.6 MBq were studied.
Female NSG mice were implanted subcutaneously with human OVCAR3 (FOLR+) ovarian cancer cells. Once tumors reached volumes of 200 mm^3, the animals were treated with Indi ^177Lu-7327. One treatment arm of 74 MBq and a control group of 0 MBq were studied (FIGS. 41 and 38A). […] The second dose was administered 21 days following the first dose. Statistically significant differential between treated and control was reached 24 days post-injection (three days following the second dose) for the 74 MBq arm. P values (* for p≤0.05, ** for p≤0.01) were determined by ordinary one-way ANOVA with Tukey's multiple comparisons test.

Series [2] can be described thus: Maximum tolerated dose / tolerability study.
Description: Animals were monitored for signs of toxicity and weighed twice weekly. […] The second and third doses were administered 21 days following the previous dose.
Two separate MTD experiments were undertaken. […] A second experiment interrogated lower doses.
Mouse body weight and behavior were monitored. […] The second and third doses were administered 21 days following the previous dose.
The nature of series [3]: Gamma counting of tissue radioactivity. Format: in vivo, mouse. The note with it: for kidney radioactivity / liver radioactivity / tumor radioactivity: Day 28 post-injection. The text has this:
7 days after Lu177-#6305 injection, the 29.6 MBq group lost 20% body weight. These mice were sacrificed. Tissues and plasma were collected for evaluation of radioactivity by gamma counting. The toxicity may have resulted from its accumulation in the kidneys and liver (FIG. 28). At study endpoint (Day 28 post-injection), plasma, tumors, kidneys, lungs, hearts, livers, and muscles from 9.25 MBq and 14.8 MBq treatment groups were collected for evaluation of radioactivity by gamma counting (FIG. 29).

Series [4] in a line: Plasma stability, human. The note with it: pH 7.4, Plasma Stability (t 1/2), Hu, 2 μM, 37° C.
Description: (§1) Plasma was thawed in a 37° C. water bath. Residual clots were removed via centrifugation at 4000 rpm for 5 minutes. The pH of the plasma was adjusted to 7.4 if required. Test articles were diluted to 100 μM by diluting a 1 mM working solution (in DMSO) with 45% methanol in water. To 98 μL of plasma was added 2 μL of the 100 μM solution, resulting in 2 μM final concentration of the test article. Samples were incubated at 37° C. in a water bath. At the indicated time points (0, 10, 30, 60, 120 minutes) 100 μL of 4% H3PO4 was added followed by 800 μL of stop solution (200 ng/mL tolbutamide and 200 ng/mL labetalol in 100% acetonitrile). The samples were centrifuged and the plasma protein-free supernatant (100 μL) was subjected to LC-MS/MS analysis.
Series [5] can be described thus: Plasma stability, mouse. As to conditions: CD-1, mouse, pH 7.4, Plasma Stability (t 1/2), Mu, 2 μM, 37° C.
Description: as §1
Series [6] concerns OVCAR3 (FOLR1+) tumor bearing NSG mice. The series is described as follows: in vivo. The note with it: mouse. As for the experimental part: Female, 7-week-old NSG mice were housed under pathogen-free conditions. Water and food were provided ad libitum. To create mice with FOLR1+ ovarian xenograft tumors, mice were injected subcutaneously with OVCAR3 cells (1×10^7 cells per mouse) resuspended in 50% Matrigel in PBS into the shoulder region. Tumor growth was monitored by caliper measurements. OVCAR3 is a human ovarian adenocarcinoma known to over-express FOLR1.
^68Ga PET imaging was used to study in vivo biodistribution of heterobiligands in non-tumor bearing (healthy) mice and OVCAR3 tumor bearing mice. 100-200 μCi of [^68Ga]DOTA-labeled heterobiligand was administered intravenously (i.v.) via the tail vein of each mouse. Dynamic PET imaging was performed from 0-1 h, followed by acquisition of static PET images at 2 h and 4 h post-injection. CT scans were acquired for anatomical reference. Imaging was performed on an Inveon microPET/CT small animal scanner. The PET signal was quantitated by three-dimensional ROI analysis and represented as percent injected dose (% ID) vs. time ([…]) for major organs including tumor, liver, heart, lung, bladder, and kidney.
Evaluation of a folate-hshta (SEQ ID NO:6) Nterm heterobiligand bearing both an albumin binder and DOTA chelator in PET was a priority, given that DOTA can accommodate both ^68Ga for imaging and ^177Lu for radiotherapy. A 200 μCi dose of ^68Ga-labeled folate-hshta-PEG3-Lys(MPBA)-Lys(DOTA) (SEQ ID NO:6) (compound #2809) was injected i.v. via tail vein in an NSG mouse bearing s.c. human OVCAR3 (FOLR1+) tumor. ^68Ga PET/CT imaging scans were performed at 0-1 h (dynamic), 2 h (static), and 4 h (static). […] The time-course biodistribution of ^68Ga-labeled folate-hshta-PEG3-Lys(MPBA)-Lys(DOTA) (SEQ ID NO:6) (compound #2809) was calculated to quantify the uptake in major organs including the tumor (FIG. 17). […] Larger tumors (490 mm^3) were also evaluated with the ^68Ga-chelated PET probe.
Images were captured for compound #1307 at the time points 5 min, 10 min, 15 min, 30 min, 1 h, 2 h, and 4 h. PET/CT images were taken following the injection of 4 female NSG mice with ^68Ga-chelated compound #2809. […] Images for mouse 4 are shown in FIG. 23 (Compounds #1307 and #2809) and FIG. 24 (Compound #1307).
Biodistribution was initially evaluated by PET imaging, as the time frame for a significant portion of clearance is roughly similar to the time frame of PET imaging experiments. Indi ^68Ga-7327 was injected via the tail vein into OVCAR3 (FOLR+) tumor implanted female NSG mice once the tumor size reached 200 mm^3, and microPET/CT scans were acquired at 5 min, 10 min, 15 min, 30 min, 1 h, 2 h, and 4 h post-injection. PET images were corrected for CT-based photon attenuation, detector normalization and radioisotope decay and converted to units of percent injected dose per cc (% ID/cc).

[7] abbreviates: 29.6 MBq group, Day 7 post-injection.

With `Cc1ccc(CCCC(=O)NCCCC[C@H](NC(=O)[C@@H]2CCCCn3cc(nn3)C[C@H](NC(=O)CC[C@H](NC(=O)c3ccc(NCc4cnc5nc(N)[nH]c(=O)c5n4)cc3)C(=O)O)C(=O)N[C@H](Cc3c[nH]cn3)C(=O)N[C@H](CO)C(=O)N[C@H](Cc3c[nH]cn3)C(=O)N[C@H]([C@H](C)O)C(=O)N[C@H](C)C(=O)N2)C(=O)NCC(=O)N[C@@H](Cc2ccccc2)C(=O)N[C@@H](CCCCNC(=O)CN2CCN(CC(=O)O)CCN(CC(=O)O)CCN(CC(=O)O)CC2)C(=O)O)cc1` [^177Lu-#6305, metal not drawn] ({Pteroyl-γGlu}-[Pra][dH][dS][dH][dT][dA][Lys(N3)]K(Butanoyl(4-(4-MePh)))GFK(DOTA)-OH; triazole 1-7), the body weight change entry in series [1] (9.25 MBq and 14.8 MBq) is “No significant body weight change”; in series [1] (29.6 MBq), “substantial body weight decrease”. Also, in series [1] (29.6 MBq, 7 days after injection), the body weight loss is on record as 20%. The body weight entry is given as “weight loss after the first dose” in series [2] (doses of 29.6, 37, 111 and 185 MBq, first dose); “only minimal loss in body weight” in series [2] (single dose of 14.8, 18.5 and 22.2 MBq). Also, the “tolerability of second dose” value in series [2] (second dose 7 days after the first (29.6-185 MBq)) and in series [2] (second dose administered 21 days (14.8-22.2 MBq)) was “not tolerated” throughout. In addition, the kidney radioactivity in series [3] (9.25 MBq group) was determined as 414 CPM/g; in series [3] (14.8 MBq group) it was 653 CPM/g. Moreover, the liver radioactivity in series [3] (9.25 MBq group) is listed as 685 CPM/g; in series [3] (14.8 MBq group), 1,264 CPM/g. In addition, the tumor radioactivity in series [3] (9.25 MBq group) worked out at 33 CPM/g; in series [3] (14.8 MBq group), 60 CPM/g. Also, the liver/kidney ratio in series [3] (14.8 MBq group on Day 28) stood at 1.94; in series [3] (29.6 MBq group on Day 7), 0.27. In addition, in series [3] (setting [7]), the “radioactivity in the kidney” value is given as 394,834 CPM/g. Besides, the “radioactivity in the liver” value in series [3] (setting [7]) is 107,374 CPM/g. Further, in series [3] (setting [7]), the “radioactivity in the tumor” value is on record as 42,674 CPM/g. For the same compound, the tissue to tissue ratio at 672 h in series [3] (mouse, tumor and kidney, total radioactivity, 14.8 MBq group, Day 28) worked out at 0.093. For the same compound, the tissue to tissue ratio at 168 h in series [3] (mouse, tumor and kidney, total radioactivity, 29.6 MBq group, Day 7) is 0.108.

Usually half-life stands for the time in which the quantity being followed falls by half. For the compound `CC(C)[N+](C)(CCOC(=O)C1c2ccccc2Oc2ccccc21)C(C)C` [Propantheline bromide, reference compound], the half-life at 2 μM was 11.6 min in series [4] and 44.8 min in series [5].

With `C[C@H](O)[C@H]1NC(=O)[C@@H](Cc2cnc[nH]2)NC(=O)[C@@H](CO)NC(=O)[C@@H](Cc2cnc[nH]2)NC(=O)[C@@H](NC(=O)CC[C@H](NC(=O)c2ccc(NCc3cnc4nc(N)[nH]c(=O)c4n3)cc2)C(=O)O)Cc2cn(nn2)CCCC[C@@H](C(=O)NCC(=O)N[C@@H](Cc2ccccc2)C(=O)N[C@@H](CCCCNC(=O)CN2CCN(CC(=O)O)CCN(CC(=O)O)CCN(CC(=O)O)CC2)C(=O)O)NC(=O)[C@@H](C)NC1=O` [Indi ^177Lu-7327, Folate-hshta-G-F-K(^177Lu-DOTA)-OH, metal not drawn] ({Pteroyl-γGlu}-[Pra][dH][dS][dH][dT][dA][Lys(N3)]GFK(DOTA)-OH; triazole 1-7), the “loss of body weight” value in series [1] (29.6 MBq, after second dose) is on record as 5-10%. Moreover, the body weight result in series [1] (highest dose (29.6 MBq), after second dose) is “modest loss of body weight”. In series [1] (mouse, in vivo), the “body weights of treated mice” value is recorded as “normal body weights (+/−10%)” and the “tolerability of first dose” value was “well tolerated”. Also, in series [2] (healthy, non-tumor bearing female NSG mice), the “radioactive dose tolerated, three treatments” value is “up to 111 MBq”.

Turning to `C[C@H](O)[C@H]1NC(=O)[C@@H](Cc2c[nH]cn2)NC(=O)[C@@H](CO)NC(=O)[C@@H](Cc2c[nH]cn2)NC(=O)[C@@H](NC(=O)CC[C@H](NC(=O)c2ccc(NCc3cnc4nc(N)[nH]c(=O)c4n3)cc2)C(=O)O)Cc2cn(nn2)CCCC[C@@H](C(=O)N[C@@H](CCCCNC(=O)CCCc2ccc(I)cc2)C(=O)NCC(=O)N[C@@H](Cc2ccccc2)C(=O)N[C@@H](CCCCNC(=O)CN2CCN(CC(=O)O)CCN(CC(=O)O)CCN(CC(=O)O)CC2)C(=O)O)NC(=O)[C@@H](C)NC1=O` [^68Ga-chelated compound #1307, metal not drawn] ({Pteroyl-γGlu}-[Pra][dH][dS][dH][dT][dA][Lys(N3)]K(Butanoyl(4-(4-I-phenyl)))GFK(DOTA)-OH; triazole 1-7), in series [6], the “heart exposure compared to compound #2809” value is on record as “less than two-fold increase”, the kidney absorption entry was “very low kidney absorption”, the “kidney dose compared to compound #2809” value is given as “seven-fold reduction” and the “lung accumulation compared to compound #2809” value is listed as “greater than three-fold increase”.

(Values after patent US11733246B2, “Compositions, imaging, and therapeutic methods targeting folate receptor 1 (FOLR1)” (Indi Molecular, Inc., priority 2020, dated 2023).)
